# Experimental data as given in patent US20030104443A1, “AFAP sequences, polypeptides, antibodies and methods” (University of West Virginia, priority 2001, published 2003).
# Tests used:
# recombinant PKCα = biological target: T1, recombinant PKCα (Homo sapiens, UniProt P17252); assay: In vitro PKC kinase assay; assay type: biochemical; conditions: 10 μg rAFAP-110, 0.5 μg PKCα, radiolabeled ATP; FIG. 10A
# T1 construct: purchased CalBiochem
# Description: PKC kinase assays were carried out according to Current Protocols in Molecular Biology (Carter, 1997). Briefly, 10 μg rAFAP-110 purified as mentioned above was incubated at 30° C. for 30 min with 0.5 μg recombinant PKCα in reaction buffer (20 mM Tris, pH 7.5, 5 mM MgCl2, 0.2 mM CaCl2, 20 μg/ml phosphatidylserine, and 2 μg/ml diolein) to which 1 μCi [γ-^32P]ATP was added. Reactions were analyzed by SDS-PAGE.
# actin filaments [1] = assay: Confocal microscopy of rhodamine-phalloidin-labeled actin filaments; assay type: biochemical
# Description: (§1) Binding constants were derived from the sedimentation of rAFAP-110 by actin. Accordingly, rAFAP-110 in the pellet and supernatant correspond to the bound and free rAFAP-110, respectively. The sum of densities of rAFAP-110 bands in the supernatant and pellet corresponds to the total mass of rAFAP-110 in the sample. The data representing the bound rAFAP-110 as a function of free rAFAP-110 were fit by nonlinear least squares to both the Langmuir (B=BMAX/(1+Kd/F)) and […] 2 μM F-actin filaments and different concentrations of rAFAP-110 in 5 mM MgCl2, 1 mM EGTA, 2 mM ATP, and 50 mM KCl at 20,800×g for 30 min at 4° C. After the centrifugation, both supernatant and pellets were analyzed by SDS-PAGE gel. Confocal microscopy assays were performed as described (Ishikawa et al., 1998, J. Biol. Chem., 273:26991-26997). Briefly, 2 μM F-actin containing 10% rhodamine-phalloidin-labeled F-actin were mixed with different concentrations of rAFAP-110 or other purified recombinant proteins in 5 mM MgCl2, 1 mM EGTA, 2 mM ATP, and 50 mM KCl at RT for 30 min. After the incubation, the reactions were applied between glass slides and coverslips and observed under confocal microscopy (Zeiss, Oberkochen, Germany). Samples for negative staining were adsorbed to grids coated with nitrocellulose and stabilized with carbon (Ernest F. Fullam, Latham, N.Y.). Unbound protein was removed by successive washes with buffer and water before staining with 1% uranylacetate (Cooper and Pollard, 1982, Methods Enzymol., 85(PtB), 182-210; Pollard and Cooper, 1982, Methods Enzymol., 85(PtB), 211-233).
# To further test AFAP-110's capability to cross-link actin filaments, we analyzed rhodamine-phalloidin-labeled actin filaments for cross-linking by confocal microscopy. In FIG. 9A, purified rAFAP-110 or rAFAP-110^Δcterm were incubated with rhodamine-phalloidin-labeled actin filaments. […] 1, actin filaments only; 2, rAFAP-110 with actin filaments; 3, rAFAP-110^Δcterm with actin filaments. FIG. 9B presents confocal microscopy images. Different concentrations of α-actinin (top two panels, low=0.0625 μM and high=1.25 μM) and rAFAP-110 (bottom two panels, low=0.106 μM and high=2.1 μM) were incubated with rhodamine-phalloidin-labeled actin filaments. […] Actin filaments labeled with rhodamine-phalloidin appeared uniformly fluorescent in the absence of an actin binding protein (FIG. 9A1). […] Electron microscopy was used to confirm rAFAP-110's ability to cross-link actin filaments.
# F-actin = assay: Actin binding assay (high-speed copelleting, 150,000×g)
# Description: G-actin was polymerized to F-actin at 5 mM Tris-HCl, pH 8.0, 0.2 mM CaCl2, 0.5 mM DTT, 5 mM MgCl2, and 2 mM ATP at room temperature (RT) for 1 h. Different concentrations of rAFAP-110 were incubated with 2 μM F-actin in 5 mM MgCl2, 1 mM EGTA, 2 mM ATP, 50 mM KCl at RT for 30 min. The reactions were centrifuged at 150,000×g for 1 h at 4° C., and then both pellets and supernatants were collected and analyzed by SDS-PAGE gel.
# as §1
# The purified rAFAP-110 was incubated with actin filaments. The negative staining image was taken at 16,000 magnification. Black arrows indicate rAFAP-110 aggregates; and white arrow indicates actin filaments. […] The electron micrographs indicate that rAFAP-110 binds to the sides of actin filaments, which was supported by the fact that one mole of actin in filaments bound up to 1.7 mol of rAFAP-110 (FIG. 7C). FIG. 7C is a graph of bound rAFAP-110 versus free rAFAP-110. rAFAP-110 at 0.18,0.29,0.70, 1.34,2.63,3.73,4.67, 5.11,5.34,5.48, and 5.66 μM was incubated with 2 μM concentration of G-actin polymerized into actin filaments and were then centrifuged at 150,000×g. Both supernatants (S) and pellets (P) were applied to SDS-PAGE gel, followed by Coomassie staining. Density of AFAP-110 determined by scanning densitometry was fit as described.
# actin filaments [2] = assay: Low-speed cosedimentation assay (20,800×g), actin filament cross-linking; assay type: biochemical
# Description: as §1
# Actin filaments are unable to efficiently pellet at 20,800×g unless cross-linked to form heavier particles (either isotropic networked or bundled actin filaments; Cooper and Pollard, 1982, supra; Pollard and Cooper, 1982, supra; Meyer et al., 1990, J. Cell. Biol. 110:2013-2024; Wachsstock et al., 1993, Biophys. J., 65: 205-214; Rybakova et al., 1996, J. Cell. Biol., 135:661-672). […] The purified recombinant proteins were incubated with actin filaments and then were centrifuged at 20,800×g. Both supernatants (S) and pellets (P) were applied to SDS-PAGE gel, followed by Coomassie staining. 1, rAFAP-110 with actin filaments; 2, rAFAP-110^Δcterm with actin filaments; 3, rAFAP-110 only; 4, rAFAP-110^Δcterm only; 5, actin filaments only. FIG. 8B is a graph of cross-linked actin filaments versus free rAFAP-110. rAFAP-110 at 0.05,0.11,0.21,0.43, 0.86, and 2.14 μM was incubated with the 2 μM concentration of G-actin polymerized into actin filaments. After the incubation, the reactions were centrifuged at 20,800×g. Both supernatants and pellets were applied to SDS-PAGE gel, followed by the Western blot analysis to detect rAFAP-110 and Coomassie blue staining to detect actin, respectively. The data of cross-linked actin filaments and free rAFA-110 were gathered by scanning densitometry of SDS-PAGE gel analysis.
# [3] = least-squares fit to Hill equation, 2 μM F-actin, FIG. 7C
# [4] = second experiment, Hill equation
# [5] = least-squares fit to Hill equation, 2 μM actin, FIG. 8B
molecule,measurement,setting,value
"rAFAP-110: Recombinant AFAP-110 purified after production as a GST bacterial fusion protein, using the PreScission Protease system (protein, UniProt Q90738 1-729, looked up) Actin filament-associated …: MEELIVELRLFLELLDHEYLTSTVREKKAVITNILLRIQSSKGFEIKEHVQKPEVANSLPAPPQMPLPEIPQQWLPPDNGPPPLPTSSLPEGYYEEAVPVSPGKAPEYITSNYDSDAMSSSYESYDEEEEDGKGKKMRHQWPSEEASMDLVKDAKICAFLLRKKRFGQWTKLLCVIKENKLLCYKSSKDQQPQMELLLNDCSITYIPKDSKKKKHELKISHQGADALVLAVQSKEQAEQWLKVIKDVCSNCTGTVDSDGPLSSSPVHKTELEKKLSSERPSSDGEGAVENGITTVCNGKEQVKRKKSSKTEAKGTVTKVTGKKITKIIGLGKKKPSTDEQTSSAEEDVPTCGYLNVLSNNRWRERWCRVKDNKLIFHKDRTDLKTHIVSIPLRGCEVIPGLDSKHPLTFRLLRNGQEVAVLEASSSEDMGRWIGMLLAETGSSTDPGALHYDYIDVEMTASVIQAAKQTFCFMNRRVISTNPYRGSTANGYACPSGMALHYDDVPCINGSFKGKKPPATANGITGKVRTLNSQPKKPESVSCVKRTASNAEQYKYGKNRVEAVAKRLQSKEEELLKRKEALRNRLAQLRKERKDLRAAIEVNAGRKTQVILEDKLKKLEEECKTKEAERVNLELELTEVKESLKKALAGGITLGLAIEPKSGTSSPQSPIFKHRTLENSPISSCDTSDTECSIPVNSAAALKRPPSSNNSPCRGHVLRKAKEWEMKNGT",phosphorylation by PKCα in vitro,recombinant PKCα,phosphorylates
same,confocal fluorescence pattern of actin filaments,"actin filaments [1]; FIG. 9A, rAFAP-110 at 1.3 μM",organized into a lacy pattern of swollen and interconnected fluorescent tubes
same,organization of actin filaments at low concentration,"actin filaments [1]; α-actinin 0.0625 μM, rAFAP-110 0.105 μM, FIG. 9B",did not change the organization of actin filaments
same,organization of actin filaments at high concentration,"actin filaments [1]; α-actinin 1.25 μM, rAFAP-110 2.1 μM, FIG. 9B",caused some aggregation of actin filaments into large branched structures
same,direct binding to actin filaments,"F-actin; 150,000×g for 1 h, FIG. 7A",bind to actin filaments directly
same,rAFAP-110 bound per one mole of actin in filaments,F-actin; FIG. 7C,up to 1.7 mol
same,BMAX,F-actin; [3],4.2 µM
same,Kd,F-actin; [3],290 nM
same,BMAX,F-actin; [4],1.5 µM
same,Kd,F-actin; [4],240 nM
same,actin cross-linked and sedimented at saturation,actin filaments [2]; 1.63 μM/2.0 μM total actin,81.5%
same,EC50,"actin filaments [2]; 2 μM actin, FIG. 8B, read-out: half maximal cross-linking",260 nM
same,sedimentation of actin filaments at low speed,"actin filaments [2]; 20,800×g, FIG. 8A",efficiently sedimented
same,BMAX (cross-linked actin filaments),actin filaments [2]; [5],1.63 µM
same,"n (Hill equation, cross-linking)",actin filaments [2]; [5],1.7
same,Kd,"actin filaments [2]; least-squares fit to Hill equation, 2 μM actin, FIG. 8B, read-out: Kd (cross-linked actin filaments versus free rAFAP-110)",260 nM
